Biological target: fap24_human FAAP24 (UniProt Q9BTP7)
UniProt Q9BTP7, sequence (Q9BTP7 whole entry): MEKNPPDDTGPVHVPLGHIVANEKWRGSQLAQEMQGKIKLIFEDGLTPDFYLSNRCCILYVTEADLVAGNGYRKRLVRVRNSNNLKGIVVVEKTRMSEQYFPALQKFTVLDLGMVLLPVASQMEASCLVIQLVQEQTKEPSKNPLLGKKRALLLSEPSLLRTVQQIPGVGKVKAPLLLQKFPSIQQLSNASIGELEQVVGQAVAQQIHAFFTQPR

effect of a mutation on the interaction: with no effect
Substance: Fanconi anemia group M protein (Homo sapiens), Q8IYD8 K117R
